# Assay results taken from patent US20230279079A1 (published 2023).
# Residue numbers refer to the chain shown, from its start. Like-named read-outs stand apart in the source and are kept apart here.
# B1: FD 8B (antibody, V domains shown)
# VH: EVQLLESGAEVKKPGASVKVSCKVSGYTLTELSMHWVRQAPGKGLEWMGGFDPEDGETIYAQKFQGRVTMTEDTSTDTAYMELSSLRSEDTAVYYCATAAAINCSSTSCYYYYYYYGMDVWGQGTTVTVSS
# VL: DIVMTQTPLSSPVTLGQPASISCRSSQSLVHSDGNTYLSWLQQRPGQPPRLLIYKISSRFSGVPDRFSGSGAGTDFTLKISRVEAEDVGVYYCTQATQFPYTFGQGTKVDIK
# B2: FN 12A (antibody, V domains shown)
# VH: QVQLVQSGAEVKKPGSSVKVSCKASGGTFSSYAISWVRQAPGQGLEWMGRIIPILGIANYAQKFQGRVTITADKSTSTAYMELSSLRSEDTAVYYCARSGCSSTSCPSNLYYYYYGMDVWGQGTTVTVSS
# VL: QSVLTQPPSVSAAPGQKVTISCSGSSSNIGNNYVSWYQQLPGTAPKLLIYDNNKRPSGIPDRFSGSKSGTSATLGITGLQTGDEADYYCGTWDSSLSALVFGGGTKLTVL
# B3: FG 12C (antibody, V domains shown)
# VH: EVQLVESGGGLVQPGRSLRLSCAASGFTFDDYAMHWVRQAPGKGLEWVSGISWNSGSIGYADSVKGRFTISRDNAKNSLYLQMNSLRAEDTALYYCAKDMRVHDYGDYYFDYWGQGTLVTVSS
# VL: SYELTQPPSVSVAPGKTARITCGGNNIGSKSVHWYQQKPGQAPVLVIYYDSDRPSGIPERFSGSNSGNTATLTISRVEAGDEADYYCQVWDSSSDHPVFGGGTKLTVL
# B4: FN 8C (antibody, V domains shown)
# VH: QVQLVESGGGVVQPGRSLRLSCAASGFTFSSYGMHWVRQAPGKGLEWVAVISYDGSNKYYADTVKGRFTISRDNSKNTLYLQMNSLRAEDTAVYYCARERTYYDILTGYRHYYGMDVWGQGTTVTVSS
# VL: B3 VL with K16Q, I47V, Y49D, P97W
# B5: FB 1E (antibody, V domains shown)
# VH: EVQLVESGAEVKKPGESLKISCQGSGYRFNSYWIAWVRQMPGKGLEWMGSIFPTDSDIRYNPSFQGQVTISADKSISIAYLQWSSLKASDTAIYYCARHWASMVRGVIRASHYYGMDVWGQGTTVTVSS
# VL: QSVLTQPPSASGSPGQSVTISCSGASSDIGDYNYVSWYQQLPGKAPKLLIYEVTKRPSGVPDRFSGSKSGNTASLTVSGLQADDEADYYCSSYAFGGSDIRVFGGGTKLAVL
# B6: FB 9D (antibody, V domains shown)
# VH: B5 VH with E1Q, I58V, I78F
# VL: B5 VL with S2P, D31K, I100T, A110T
# B7: FJ 10B (antibody, V domains shown)
# VH: QVQLVQSGAEVKKPGESLRISCKGSGYSFTSYWISWVRQMPGKGLEWMGRIDPSDSYTNYSPSFQGHVTISADKSISTAYLQWSSLKASDTAMYYCARLDPRYGPDYYGMDVWGQGTTVTVSS
# VL: AIRMTQSPSSLSASVGDRVTITCRASQSISSYLNWYQQKPGKAPKLLIHAASSLQSGVPSRFSGSGSGTDFTLTMSSLQPEDFATYYCQQSYSTPLTFGGGTKVEIR
# B8: FD 11C (antibody, V domains shown)
# VH: EVQLLESGPGLVKPSETLSLTCTVSGGSISSSSYYWGWIRQPPGKGLEWIGSIYYSGSTYYNPSLKSRVTISVDTSKNQFSLKLSSVTAADTAVYYCAREYYYGSETKKYYYYYGMDVWGQGTTVTVSS
# VL: not shown
# B9: EZ 7A (antibody, V domains shown)
# VH: EVQLVESGAEVKKPGESLKISCKGSGYSFTSYWIGWVRQMPGKGLEWMGIIYPGDSDTRYSPSFQGQVTISADKSISTAYLQWSSLKASDTAMYYCARGWVYRGFPYYGMDVWGQGTMVTVSS
# VL: QSALTQPRSVSGSPGQSVTISCTGTSSDVGGYNYVSWYQQHPGKAPKLMIYDVSKRPSGVPDRFSGSKSGNTASLTISGLQAEDEADYYCCSYAGSYTLVFGGGTKLTVL
# B10: FD 10A (antibody, V domains shown)
# VH: EVQLVESGGGLVQPGGSLRLSCAASGFTFSSYWMHWVRQAPGKGLVWVSRINSDGSSTSYADSVKGRFTISRDNAKNTLYLQMNSLRAEDTAVYYCANMAFDIWGQGTMVTVSS
# VL: not shown
# B11: FI 4A (antibody, V domains shown)
# VH: EVQLVESGGGLVKPGGSLRLSCAASGFTFSRFSMNWVRQAPGKGLEWVSSISSSGSYIYFADSVKGRFTISRDNAKNSLYLQMNSLRAEDTAIYYCATYLFGDSHTYWGQGTLVTVSS
# VL: QSVLTQPHSVSESPGKTVTISCTGSSGSIASNYVQWYQQRPGSAPTTVIYEDNQRPSGVPDRFSGSIDSSSNSASLTISGLKTEDEADYYCQSYDSSNLHWVFGGGTKLTVL
# B12: FI-1C (antibody, V domains shown)
# VH: EVQLVESGGGLVKPGGSLRLSCAASGFTFSDYYMSWIRQAPGKGLEWVSYISSSGSTIYYADSVKGRFTISRDNAKNSLYLQMNSLRAEDTAVYYCARRSNRFLIAFDIWGQGTMVTVSS
# VL: QSALTQPASVSGSPGQTITISCTGTSSDVGGYNYVSWYQQHPGKAPKLMIYEVSNRPSGVSNRFSGSKSGNTASLTISGLQAEDEADYYCSSYTSSSTLVVFGGGTKLTVP
# B13: FI 1C (antibody, V domains shown)
# VH: B12 VH
# VL: B12 VL
# B14: FN 2C (antibody, V domains shown)
# VH: EVQLLESGGGVVQPGRSLRLSCAASGFNFNNYGMHWVRQAPGKGLEWVATISYEGSKKFYVDSVKGRFTISKDNSKNTLYLQMNSLRVDDTAFYYCAKRREIFWLGEPPLSDAFDFWGQGTMVTVSS
# VL: QSVLTQPPSVSGAPGQRVTISCTGSGSNIGAGYDVHWYQFLPGTAPQLLIYGNNNRPSGVPDRFSGSKSGTSASLAITGLQAEDEADYYCQSYDSSLSGSVFGGGTKLTVL
# B15: FI 3A (antibody, V domains shown)
# VH: EVQLLESGGGLIQPGGSLRLSCAASGFTVSSNYMSWVRQAPGKGLEWVSVIYSGGSTYYADSVKGRFTISRDNSKNTLYLQMNSLRAEDTAVYYCARDHVRPGMNIWGQGTMVTVSS
# VL: not shown
# B16: FD 5D (antibody, V domains shown)
# VH: EVQLVESGGGLVQPGGSLRLSCAASGFTFSSYSMNWVRQAPGKGLEWVSYISSSSSTIYYADPVKGRFTISRDNAKNSLYLQMNSLRAEDTAVYYCASPGGITAAGTSVLFGYYGMDVWGQGTMVTVSS
# VL: not shown
# B17: FD 11D (antibody, V domains shown)
# VH: EVQLVESGGGVVQPGRSLRLSCAASGFTFSSYGMHWVRQAPGKGLEWVAVISYDGSNKYYADSVKGRFTISRDNSKNTLYLQMNSLRAEDTAVYYCAKEGAGSGWYRHHKPGYYFDYWGQGTLVTVSS
# VL: not shown
# B18: FM 7B (antibody, V domains shown)
# VH: EVQLVQSGAEVKKPGASVKVSCKASGYTFTSYAMHWVRQAPGQRLEWMGWINTGNGNTKYSQKFQGRVTITRDTSASTAYMELSSLRSEDTAVYYCARDPTYCSSTSCYPFSWFDPWGQGTLVTVSS
# VL: NFMLTQPPSVSVAPGQTARITCGGNNIGSKSVHWYQQKPGQAPVLVVYDDSDRPSGIPERFSGSNSGNTATLTISRVEAGDEADYYCQVWDSTGDHSWVFGGGTKLTVL
# B19: FD 7C (antibody, V domains shown)
# VH: QLQLQESGPGLVKPSETLSLTCTVSGGSISSYYWSWIRQPPGKGLEWIGYIYYSGSTNYNPSLKSRVTISVDTSKNQFSLKLSSVTAADTAVYYCARDYRFGELFGRFAWFDPWGQGTLVTVSS
# VL: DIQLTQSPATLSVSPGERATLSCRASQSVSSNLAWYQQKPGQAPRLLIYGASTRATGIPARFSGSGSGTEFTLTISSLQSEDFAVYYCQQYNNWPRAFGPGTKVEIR
# B20: FD 11A (antibody, V domains shown)
# VH: EVQLVESGGGVVQPGRSLRLSCAASGFTFSSYGMHWVRQAPGKGLEWVAVIWYDGSNKYYADSVKGRFTISRDNSKNTLYLQMNSLRAEDTAVYYCAKGPDILTGYYNYYYYGMDVWGQGTMVTVSS
# VL: QSVLTQPPSVSGAPGQRVTISCTGSSSNIGAGYDVHWYQQLPGTAPKLLIYGNSNRPSGVPDRFSGSKSGTSASLAITGLQAEDEADYYCQSYDSSLSGFYVVFGGGTKLTVL
# B21: FD 1E (antibody, V domains shown)
# VH: EVQLLESGGGLVKPGGSLRLSCAASGFTFSSYSMNWVRQAPGKGLEWVSSISSSSSYIYYADSVKGRFTISRDNAKNSLYLQMNSLRAEDTAVYYCASLAAAGPETYYYYGMDVWGQGTMVTVSS
# VL: not shown
# B22: FD 11E (antibody, V domains shown)
# VH: B21 VH with L5V
# VL: not shown
# B23: FD 7D (antibody, V domains shown)
# VH: EVQLVESGAEVKKPGESLRISCKGSGYSFTSYWISWVRQMPGKGLEWMGRIDPSDSYTNYSPSFQGHVTISADKSISTAYLQWSSLKASDTAMYYCARHSDCSSTSCYFVDAFDIWGQGTMVTVSS
# VL: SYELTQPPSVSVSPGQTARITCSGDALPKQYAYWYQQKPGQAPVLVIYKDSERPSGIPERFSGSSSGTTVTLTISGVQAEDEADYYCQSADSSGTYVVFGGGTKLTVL
# B24: FJ 1C (antibody, V domains shown)
# VH: QVQLQESGPGLVKPSETLSLTCTVSGYSISSGYYWGWIRQPPGKGLEWIGSIYHSGSTYYNPSLKSRVTISVDTSKNQFSLKLSSVTAADTAVYYCARDKALLWFGELFTNLFDYWGQGTLVTVSS
# VL: QSALTQPASVSGSPGQSITISCTGTSSDVGGYNYVSWYQQHPGKAPKLMIYEVSNRPSGVSNRFSGSKSGNTASLTISGLQAEDEANYYCSSYTSSSTLVFGGGTKLTVL
# Legend:
# [1] = biological target: SARS-CoV-2 spike extracellular domain (SARS-CoV-2, UniProt P0DTC2 14-1213); test: ELISA
# [2] = biological target: T1, SARS-CoV-2 spike receptor binding domain (RBD) (SARS-CoV-2, UniProt P0DTC2 319-541); test: flow
# [3] = biological target: T1, SARS-CoV-2 spike receptor binding …; test: flow; remark: listed apart in the source
# RBD-VLP = RBD-VLP (SARS-CoV-2, UniProt P0DTC2 340-538)
Binder,Kd [1],also measured
B1,10.4 nM,
B2,0.38 nM,Kd [2]: 1.12 nM
B3,2.54 nM,
B4,63.9 nM,
B5,0.41 nM,
B6,0.29 nM,
B7,7.57 nM,Kd [3]: 3.73 nM
B8,0.98 nM,
B9,1.08 nM,Kd [3]: 11.4 nM
B10,0.42 nM,
B11,0.41 nM,Kd [2]: 7.9 nM
B12,,IC50 (RBD-VLP): 23 nM
B13,1.18 nM,Kd [2]: 12.2 nM
B14,0.3 nM,
B15,6.61 nM,Kd [3]: 3.83 nM
B16,0.58 nM,Kd [3]: 0.93 nM
B17,3.54 nM,
B18,0.51 nM,Kd [2]: 0.64 nM
B19,0.18 nM,
B20,0.4 nM,Kd [2]: 0.75 nM
B21,20.5 nM,
B22,19.5 nM,
B23,64 nM,
B24,0.57 nM,
